According to publication PMC8884905, “RECON syndrome is a genome instability disorder caused by mutations in the DNA helicase RECQL1” (The Journal of Clinical Investigation, 2022):
Where a chain is given by its changes, count along the chain named. In names and notes the source's numbering stands.

B1: recombinant human WT RECQL1 (enzyme, UniProt P46063 1-649, looked up)
chain: MASVSALTEELDSITSELHAVEIQIQELTERQQELIQKKKVLTKKIKQCLEDSDAGASNEYDSSPAAWNKEDFPWSGKVKDILQNVFKLEKFRPLQLETINVTMAGKEVFLVMPTGGGKSLCYQLPALCSDGFTLVICPLISLMEDQLMVLKQLGISATMLNASSSKEHVKWVHAEMVNKNSELKLIYVTPEKIAKSKMFMSRLEKAYEARRFTRIAVDEVHCCSQWGHDFRPDYKALGILKRQFPNASLIGLTATATNHVLTDAQKILCIEKCFTFTASFNRPNLYYEVRQKPSNTEDFIEDIVKLINGRYKGQSGIIYCFSQKDSEQVTVSLQNLGIHAGAYHANLEPEDKTTVHRKWSANEIQVVVATVAFGMGIDKPDVRFVIHHSMSKSMENYYQESGRAGRDDMKADCILYYGFGDIFRISSMVVMENVGQQKLYEMVSYCQNISKCRRVLMAQHFDEVWNSEACNKMCDNCCKDSAFERKNITEYCRDLIKILKQAEELNEKLTPLKLIDSWMGKGAAKLRVAGVVAPTLPREDLEKIIAHFLIQQYLKEDYSFTAYATISYLKIGPKANLLNNEAHAITMQVTKSTQNSFRAESSQTCHSEQGDKKMEEKNSGNFQKKAANMLQQSGSKNTGAKKRKIDDA
notes: RECQL1 (RECQL, RECQ1) DNA helicase, human, wild type; also called RECQ1; source: insect cells, purified to near homogeneity
B2: recombinant human RECQL1-A459S (enzyme, UniProt P46063 1-649, looked up)
chain: B1 chain with A459S
notes: Variant found in patients (RECON syndrome); also called p.A459S mutant RECQL1; RECQL1 p.Ala459Ser; source: insect cells, purified to near homogeneity

Key:
[1] = test system: RECQL1 WT (human); experiment: EMSA; conditions: EMSA: 20 mM Tris pH 7.4, 10 mM KCl, 5 mM MgCl2, 10% glycerol, 80 ng/ul BSA, with or without 5 mM ATPgS, 0.5 nM DNA; competition at 37 C (8 min, then 7 min with …)
[2] = test system: RECQL1-A459S (human); experiment: EMSA; conditions: EMSA: 20 mM Tris pH 7.4, 10 mM KCl, 5 mM MgCl2, 10% glycerol, 80 ng/ul BSA, with or without 5 mM ATPgS, 0.5 nM DNA; competition at 37 C (8 min, then 7 min with …)
[3] = test system: RECQL1 WT (human); experiment: EMSA; conditions: EMSA: 20 mM Tris pH 7.4, 10 mM KCl, 5 mM MgCl2, 10% glycerol, 80 ng/ul BSA, with or without 5 mM ATPgS, 0.5 nM DNA; competition at 37 C (8 min, then 7 min with …); remark: listed apart in the source
[4] = test system: RECQL1-A459S (human); experiment: EMSA; conditions: EMSA: 20 mM Tris pH 7.4, 10 mM KCl, 5 mM MgCl2, 10% glycerol, 80 ng/ul BSA, with or without 5 mM ATPgS, 0.5 nM DNA; competition at 37 C (8 min, then 7 min with …); remark: listed apart in the source
[5] = biological target: the molecule itself; experiment: SEC; size exclusion chromatography of the purified recombinant protein in the absence of ATP

Molecule | Kd [1] | Kd [2] | Kd [3] | Kd [4] | binding result [5]
19 bp forked duplex | 2.94 nM? | 4.74 nM? | 5.39 nM? | 7.69 nM? | 
B1 |  |  |  |  | binds
B2 |  |  |  |  | binds
